# Laboratory results as given in article PMC5450235, “Predicting the targeting of tail-anchored proteins to subcellular compartments in mammalian cells” (Journal of Cell Science, 2017).
# No end group written: not given here. *: point of attachment. FITC = O=C1OC2(c3ccc(O)cc3Oc3cc(O)ccc32)c2ccc(NC(=S)*)cc21
# T1: recombinant full-length human PEX19 (human, UniProt P40855 1-299)
# T1 construct: PEX19, human, full length, cloned into pETM11; also called recombinant PEX19
# T1 sequence (looked up): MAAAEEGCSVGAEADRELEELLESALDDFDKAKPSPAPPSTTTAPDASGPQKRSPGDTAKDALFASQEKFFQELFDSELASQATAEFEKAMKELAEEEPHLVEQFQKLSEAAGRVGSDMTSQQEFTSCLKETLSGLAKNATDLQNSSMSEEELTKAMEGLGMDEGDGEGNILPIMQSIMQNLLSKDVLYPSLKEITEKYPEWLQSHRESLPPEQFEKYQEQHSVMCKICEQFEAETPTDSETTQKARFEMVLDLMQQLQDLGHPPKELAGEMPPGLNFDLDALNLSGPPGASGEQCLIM
# B1: FITC-labelled peptide ACBD5 MUT1 (peptide)
# peptide: {FITC}-SPGVLTFAIIWPFIAQWLVYLYYQRARAKL
# notes: the C-terminal asparagine was removed; also called MUT1 peptide; peptide MUT1; source: synthetic peptide (Genscript)
# B2: FITC-labelled peptide ACBD5 MUT2 (peptide)
# peptide: {FITC}-SPGVLTFAIIWPFIAQWLVYLYYQAAAAKL
# notes: the C-terminal asparagine was removed; also called MUT2 peptide; source: synthetic peptide (Genscript)
# B3: FITC-labelled peptide ACBD5 WT (peptide)
# peptide: {FITC}-SPGVLTFAIIWPFIAQWLVYLYYQRRRRKL
# notes: TMD and tail region of ACBD5; the C-terminal asparagine residue was removed to facilitate peptide synthesis; also called ACBD5-TMD-T WT peptide; source: synthetic peptide (Genscript)
# Target: T1, recombinant full-length human PEX19
# Assay: fluorescence polarisation; fluorescence anisotropy; FITC peptide at 6.7 nM, protein titrated (dilution series, factor 1.5); 25°C; 50 mM Tris-HCl pH 7.5, 250 mM NaCl, 0.5 mM TCEP with 0.67 mg/ml BSA, no detergent; 1:1 hyperbolic fit
# Settings: both partners purified
row,Kd,Binder
1,1900 nM,B1
2,7700 nM,B2
3,900 nM,B3
